Source: PMC6737378, “Molecular Basis for ATP-Hydrolysis-Driven DNA Translocation by the CMG Helicase of the Eukaryotic Replisome” (Cell Reports, 2019)
Blank lines part the entries; values can stand above or below the molecule they belong to.

B3: Saccharomyces cerevisiae Csm3-Tof1 complex (complex, S. cerevisiae)
chain 1: MDQDFDSLLLGFNDSDSVQKDPTVPNGLDGSVVDPTIADPTAITARKRRPQVKLTAEKLLSDKGLPYVLKNAHKRIRISSKKNSYDNLSNIIQFYQLWAHELFPKAKFKDFMKICQTVGKTDPVLREYRVSLFRDEMGMSFDVGTRETGQDLERQSPMVEEHVTSAEERPIVADSFAQDKRNVNNVDYDNDEDDDIYHLSYRNRRGRVLDERGNNETVLNNVVPPKEDLDALLKTFRVQGPVGLEENEKKLLLGWLDAHRKMEKGSMTEEDVQLIQSLEEWEMNDIEGQHTHYDLLPGGDEFGVDQDELDAMKEMGF
chain 2: MSADLQQGTTNAADFSLTVLRARIALLATAIGGPDYTSQIDPPPYKLGDDCLACLKDLKRWFKLVDDQQKRWDVAMAVAEYRILTDDLLPILIDWENKCSLAAKLAKNNPDHEEFRNKAYYDKIALNCLQLLVLMTWPLIVTEQSSSNQITLYGELKKHQLVYKKTILSMESGKVLRAAIRLALDVIKIDRLSRTPRDNMVLKLVLNFFRNVIAIEPGEFTINTKKSMPKKGITSIDTLPPNVSMDDISLNTVISSFHKNKVFGFLLTLTSSLSKEFDQDFINIPLLEIMFYFTKDVNQELLFPRQFETGTHSKVVNKNESSSANNIVTSAGFELSKLLQKEHQMRKNVIKHTSARHSRFGGLLSIQTPDKTRLTVSGSQALVDEKIALQKLDDSKKWNKRIIKKHQSVAAEGLPNSLLNSQTGKAIFFTESNGKHFKEFINNFIDSGFNILLHSVTNYFTTEQDRMVTLEQVEYLLFFAWFVKYQLLRSKIDNSADIKQVSEALKEVTFILVSSLLRSAYDLKNWTVTHAGMIAFNELLNLVSRTKAAQEEDSTDIEFIVSRLFSDERIQLLSNLPKIGSKYSLQFMKSCIELTHSVLKVLEQYSDDKTLVIEGKSRRQKKFNISEGDITKLIEEENVDRDEALDILTSSLRSIEVNFQKVQANYMTEPVIETYINFLERFRELEDDSIKKVFSFFHRVFVQAKEQALLFRFDLIILLREMLSPDGLDRMSRSRKYVSQFSDYFLARLKKRLKKSPAWFVGLLFPPLHNSEVGFYQRYGEYNVLNNESMYAAPASQFKPIPDEEALPPSILLDMKYGVLVSTLLDDGKTELLDQLLKHITHTLDIFKSWLTVNVNAGKETVNPPNEYFTLTGVLNNDPIFKDKDYRALLLLIGYSIPRKINEPCFLPGTVEVSDLTVSCELVKKYLSTPFETPNGLPSSSYLLRVRSEKDSFSHNEQDGWEGDDDYDYNDPYIVPDDQILSKSDAAYFKDLDNNASDKLKGTKFSKGIARSKKKDKRKRRKGEAKTNLPMFGDQDDERPQTVRERHGVFSKEFISDSEDDEDLMNPIFFENETYMRWLLDKNNGQLTEDRYIQFAKFAAERMNNGGVVTGDYTSLFGGSIPSIESIRATESSSFAPDKSLISLASHVASEMSIFDVNNNNNNQLSDDDVNSESRNSLGSSQPSNSQNMFQSEVYSRKESTKRSLEASAADESDEDEEAIRLFGKKSRVVLSQGDSDD
notes: Csm3, S. cerevisiae, from strain yAE48 (Yeeles et al., 2017); Tof1, S. cerevisiae, from strain yAE48 (Yeeles et al., 2017); Construct in Yeeles et al., 2017; also called ScCsm3/Tof1

Legend:
[1] = system: T1, Drosophila CMG (Cdc45-MCM-GINS helicase; DmCMG); test: cryo-EM structure; type: binding, Drosophila melanogaster; conditions: DNA fork bound, 5 mM ATP elution buffer, 2 mM Mg(OAc)2, pH 7.6; bipartite MCM inter-protomer ATPase sites; states 1A, 1B, 2A, 2B at 3.70-4.46 Å; ADP at loosened interfaces, arising during ATP turnover
T1 construct: gene Mcm2; with Cell division control protein 45; DNA replication complex GINS protein PSF1; DNA replication complex GINS protein PSF2; DNA replication complex GINS protein PSF3; DNA replication complex GINS protein SLD5
Source text: cryo-EM structure on Drosophila CMG (Cdc45-MCM-GINS helicase; DmCMG) | ATP at inter-protomer interfaces is shown in red.

[2] = biological target: B3; test: DNA-affinity purification; desthiobiotin fork or blunt duplex DNA on streptavidin magnetic beads; 350 nM Mrc1, 350 nM Csm3-Tof1 or 350 nM MCT pre-incubated on ice; Protein Binding Buffer, 30°C; eluted with biotin; conditions: both partners purified
[3] = biological target: T2, Saccharomyces cerevisiae CMG helicase (Cdc45-MCM-GINS) (S. cerevisiae, UniProt P29469 1-868; P24279 1-971; P30665 1-933; P29496 1-775; P53091 1-1017; P38132 …); test: DNA fork-affinity purification with silver-stained gel and negative-stain EM 2D averaging; desthiobiotin DNA fork on streptavidin magnetic beads; 250 nM CMG mixed with 350 nM Mrc1 + Csm3-Tof1, 2 mM ATPγS, then 80 nM Polε; Protein Binding Buffer, 30°C; eluted with biotin; dropouts without Mrc1 or Csm3-Tof1; parallel experiment without Polε on an M.HpaII-labeled fork; conditions: both partners purified
T2 construct: Mcm2, S. cerevisiae, subunit of the CMG from strain yJCZ3 (Zhou et al., 2017); Mcm3, S. cerevisiae, subunit of the CMG from strain yJCZ3; Mcm4, S. cerevisiae, subunit of the CMG from strain yJCZ3; Mcm5, S. cerevisiae, subunit of the CMG from strain yJCZ3; Mcm6, S. cerevisiae, subunit of the CMG from strain yJCZ3; Mcm7, S. cerevisiae, subunit of the CMG from strain yJCZ3; Cdc45, S. cerevisiae, …

[4] = biological target: T2, Saccharomyces cerevisiae CMG helicase …; test: pull-down + other: negative-stain EM; 250 nM CMG held on Calmodulin Affinity Resin, 500 nM Ctf4 added, 1 mM ATPγS, 30°C; eluted with EDTA/EGTA, cross-linked with 0.01% glutaraldehyde and imaged; conditions: both partners purified

Molecule: Nc1ncnc2c1ncn2[C@@H]1O[C@H](COP(=O)(O)OP(=O)(O)O)[C@@H](O)[C@H]1O [ADP]
cryo-EM structure [1]: The C-terminal subunit in the spiral is ADP bound as are the non-engaged seam subunits.

Molecule: B3
binding result [3]: binds

Second part, the molecule after the results:

binding result [2]: binds
binding result [3]: binds
B1: Saccharomyces cerevisiae Mrc1 (natural protein, S. cerevisiae, UniProt P25588 1-1096, looked up)
chain: MDDALHALSSLTAKKRTTTYKKVAVPILDENDNTNGNGPNDIDNPPELTGNGFLFANATLNRVKNRLEGKKAPEQNHNNGKDRSENSLPTQLISNLYDGGEELEKSEVKDNSYSEKNVSSSFTQTQRIPVSIQQDKVFNVPIHSVNDGKPTQLIKEDGLVNETSQALKTPLTTGRPGATQRIDSSGATSQTQPIKSIEPQSQIITTSSNHSNALSPKIPIIPTELIGTSPLFQSIQNRGPDTQMDVPPQTAHDEDKTQAIGIPQATHQEQKTQIDTVAQTLQDEVPHTLKIREIQSELASEDSKREKARNVEYKKPQKPIPTKKFFSKESFLADFDDSSSNEDDDIKLENAHPKPVQNDDELHENKSVELNLTDETRINEKRVPLLSSYANNLKREIDSSKCITLDLDSDSDEYGDDDMDSIKLSKDESVLPISQLSKATILNLKARLSKQNQKLSQRPNKSKDPKVDHNVLLNTLRKASRKQILDHQKEVIETKGLKLEDMAKEKEIVENLLEQEILRNKRIRQKEKRREKLEENDFQLNAHDSGSDSGSESSGFALSGNEIADYESSGSENDNRRESDSEKEDDEIILKQKKSHHVKHIINESDSDTEVEAKPKEKADESLPKRIAINLGHYGDNIGEDTDKFQETNVLDTQNIEEVMAERNTIENEVKDDVYVNEEADEAIRRQLIDKEKLQLKQKEKEHEAKIKELKKRGVTNFFEMEAEESEDEWHGIGGADGEGSDDYDSDLEKMIDDYSKNNFNPHEIREMLAAENKEMDIKMINKILYDIKNGGFRNKRAKNSLELELSDDDEDDVLQQYRLKRRELMRKRRLEIGDDAKLVKNPKSSAFFESMVEDIIEYKNPFGAEEEYNLDITSTATDLDTQDNSINVGDNTGNNEQKPVDQKNKKVIISEDFVQKSLSFLKSNNYEDFETDKELSRIQHGNDEAIEDLYTLKQNSSIKSFTNSQTDSTTSKTVNTIIDLEKRPEDEDEVENGDTSLVGVFKHPSIIKSFASRTDINDKFKEGNKTVKILKSYKTVGSSKASITYMGKTRKLIAPKRKTEGSHRYHHDHHNKKMKMKTKTKSNKLFESGQDSFDN
notes: Mrc1, S. cerevisiae, from strain yJY32 (Yeeles et al., 2017); Construct in Yeeles et al., 2017; also called ScMrc1; FLAG-Mrc1; source: S. cerevisiae strain yJY32, purified (anti-FLAG M2 agarose, MonoQ)

binding result [4]: binds
B2: Saccharomyces cerevisiae Ctf4 trimer (natural protein, S. cerevisiae, UniProt Q01454 1-927, looked up)
chain: MVSVIDKLVFDFGGKTLVSLAPDNNTLCVANKNGLTKILKTNNPEEEPETLDSSKLVSSIKCYSNSHFLMTTMQGDALRYNIDSSQEELLARFALPLRDCCVIHSGKMAVFGGDDLELILLELDDETHKKHAIKIDEQVSQISYNSQMNILAVSMINGKVQIFSLTSTIPNKVHELNDYIVANSYDDTHRDKILSNMMDDIDKDNDNDLSETADPDENNVADPEFCAANRICTRVAWHPKGLHFALPCADDTVKIFSIKGYSLQKTLSTNLSSTKAHFIDLQFDPLRGTYIAAVDLNNKLTVWNWETSEIHYTREFKRKITNIAWKIQADSKTLDLVLGTWSGSIAIVQNLAESVVSNIPDQSVAESSTKHGLFVDSESDLENLEGNDDINKSDKLFSDITQEANAEDVFTQTHDGPSGLSEKRKYNFEDEEDFIDDDDGAGYISGKKPHNEHSYSRVHKTHSFPISLANTGKFRYMPFSPAGTPFGFTDRRYLTMNEVGYVSTVKNSEQYSITVSFFDVGRFREYHFEDLFGYDLCFLNEKGTLFGQSKTGQIQYRPHDSIHSNWTKIIPLQAGERITSVAATPVRVIVGTSLGYFRSFNQFGVPFAVEKTSPIVALTAQNYRVFSVHYSQFHGLSYSLSELGTSSKRYYKRECPLPMSLPNINSDMKKDANLDYYNFNPMGIKSLFFSSYGDPCIFGSDNTLLLLSKWRSPEESKWLPILDSNMEIWKMSGGKETTDIHVWPLALAYDTLNCILVKGKHIWPEFPLPLPSEMEIRMPVFVKSKLLEENKAILNKKNEIGADTEAEEGEEDKEIQIPVSMAAEEEYLRSKVLSELLTDTLENDGEMYGNENEVLAALNGAYDKALLRLFASACSDQNVEKALSLAHELKQDRALTAAVKISERAELPSLVKKINNIREARYEQQLK
notes: Ctf4, S. cerevisiae, expression plasmids of Gambus et al., 2009; Called a trimer in the methods; Construct in Gambus et al., 2009; also called ScCtf4; source: E. coli BL21 (DE3), purified (Ni-NTA, MonoQ, Superdex 200)
